Biological target: IgE antibodies in four Pru p 7 reactive human sera
Test: ImmunoCAP IgE inhibition, inhibitor in solution at 20 ug/mL, rPru p 7 on solid phase

B1: recombinant Cup s GRPb (protein)
chain: AQIDCDKECNRRCSKASLHDRCLKYCGICCEKCHCVPPGTAGNEDVCPCYAHLKNSKGGHKCP
  percent inhibition of IgE binding to rPru p 7 (fourth serum): 80%
